For the test, the target named is HA-tagged DDX6 (designed around the RecA2 region) (UniProt P26196). As to the kind of experiment: grating-coupled interferometry (GCI); Creoptix WAVEsystem; DDX6 protein immobilised on the sensor chip by amine coupling, 4E-T protein as analyte; PBS/0.01% Tween20; regeneration-free kinetics; blank without DDX6 as reference.
UniProt P26196, sequence (P26196 whole entry): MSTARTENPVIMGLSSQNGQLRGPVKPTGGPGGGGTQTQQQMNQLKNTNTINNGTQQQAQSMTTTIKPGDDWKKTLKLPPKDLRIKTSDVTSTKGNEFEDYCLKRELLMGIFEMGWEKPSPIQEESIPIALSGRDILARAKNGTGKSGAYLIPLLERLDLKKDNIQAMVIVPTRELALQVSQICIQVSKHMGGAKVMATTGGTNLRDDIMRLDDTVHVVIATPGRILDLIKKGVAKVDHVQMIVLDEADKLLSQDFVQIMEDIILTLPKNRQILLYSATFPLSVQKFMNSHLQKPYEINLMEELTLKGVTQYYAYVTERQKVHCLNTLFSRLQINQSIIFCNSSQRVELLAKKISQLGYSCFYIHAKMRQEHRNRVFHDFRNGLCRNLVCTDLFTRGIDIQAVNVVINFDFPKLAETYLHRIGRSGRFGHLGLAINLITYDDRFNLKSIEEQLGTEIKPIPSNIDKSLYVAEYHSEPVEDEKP

Turning to “HA-tagged 4E-T (designed around the CHD region) (from UniProt Q9NRA8 1-985) (domain or fragment)”, the Kd (usually the equilibrium constant for the complex coming apart) came to 774 nM; the koff (as a rule, a measure of how fast the partners let go of each other) was found to be 0.000278 s⁻¹; the kon (in general, a measure of how fast the partners come together) came to 359 M⁻¹ s⁻¹.

The record behind these values is paper PMC9174231.
